According to publication PMC4835703:

Experiments:
MD2-GFP [1] = target: MD2-GFP (UniProt Q9Y6Y9); experiment: MST; secreted MD2-GFP in the culture supernatant of transfected 293 cells grown in suspension; CnB titrated in 16 1:1 dilutions
[2] = target: CD14-GFP (full-length membrane-anchored CD14 from transfected HEK293 lysates) (UniProt P08571); experiment: MST; GFP-tagged receptors in lysates of transfected HEK293 cells (RIPA buffer), diluted according to fluorescence intensity; CnB titrated in 16 1:1 dilutions; 25 °C
Sequence of CD14-GFP (full-length membrane-anchored CD14 from transfected HEK293 lysates) (P08571 20-367): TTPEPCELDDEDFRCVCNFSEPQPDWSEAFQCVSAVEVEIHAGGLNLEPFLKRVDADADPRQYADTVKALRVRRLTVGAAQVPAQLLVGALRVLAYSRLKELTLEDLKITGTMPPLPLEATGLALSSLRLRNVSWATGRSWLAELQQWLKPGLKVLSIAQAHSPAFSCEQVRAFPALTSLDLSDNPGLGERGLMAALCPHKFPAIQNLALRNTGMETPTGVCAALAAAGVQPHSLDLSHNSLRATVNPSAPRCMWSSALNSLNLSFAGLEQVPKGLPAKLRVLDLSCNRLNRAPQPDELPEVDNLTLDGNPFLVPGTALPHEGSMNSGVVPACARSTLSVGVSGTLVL

MD2-GFP [3] = target: MD2-GFP (UniProt Q9Y6Y9); experiment: as above
[4] = target: TLR4-GFP (full-length TLR4 from transfected HEK293 lysates) (UniProt O00206); experiment: as above
Sequence of TLR4-GFP (full-length TLR4 from transfected HEK293 lysates) (O00206 24-839): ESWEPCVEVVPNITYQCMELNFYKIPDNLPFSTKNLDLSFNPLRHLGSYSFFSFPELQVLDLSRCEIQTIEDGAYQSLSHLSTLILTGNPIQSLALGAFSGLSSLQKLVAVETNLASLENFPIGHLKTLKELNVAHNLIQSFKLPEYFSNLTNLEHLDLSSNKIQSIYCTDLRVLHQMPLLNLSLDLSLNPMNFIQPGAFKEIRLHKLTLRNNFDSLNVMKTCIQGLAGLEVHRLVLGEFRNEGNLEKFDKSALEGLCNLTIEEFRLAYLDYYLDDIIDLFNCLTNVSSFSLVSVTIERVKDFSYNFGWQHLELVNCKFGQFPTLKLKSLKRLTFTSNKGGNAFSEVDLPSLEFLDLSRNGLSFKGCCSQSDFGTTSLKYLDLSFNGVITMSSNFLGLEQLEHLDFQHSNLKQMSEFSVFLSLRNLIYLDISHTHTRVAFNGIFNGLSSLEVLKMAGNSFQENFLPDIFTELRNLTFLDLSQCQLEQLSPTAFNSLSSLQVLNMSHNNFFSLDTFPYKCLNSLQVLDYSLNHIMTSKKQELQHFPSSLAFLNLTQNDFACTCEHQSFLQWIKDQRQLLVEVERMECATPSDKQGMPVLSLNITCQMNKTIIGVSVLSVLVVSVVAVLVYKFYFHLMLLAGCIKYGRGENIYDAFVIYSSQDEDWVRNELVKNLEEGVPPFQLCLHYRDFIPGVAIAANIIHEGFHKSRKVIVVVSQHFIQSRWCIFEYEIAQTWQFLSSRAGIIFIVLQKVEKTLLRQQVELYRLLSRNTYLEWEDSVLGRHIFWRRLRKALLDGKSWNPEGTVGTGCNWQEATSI

Sequence of recombinant calcineurin B (P63098 whole entry): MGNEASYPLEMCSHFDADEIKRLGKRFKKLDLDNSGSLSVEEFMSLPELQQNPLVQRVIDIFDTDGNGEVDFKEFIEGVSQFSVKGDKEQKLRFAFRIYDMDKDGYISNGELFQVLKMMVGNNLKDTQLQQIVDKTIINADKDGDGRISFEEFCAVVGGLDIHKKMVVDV
Sequence of MD2-GFP (Q9Y6Y9 19-160): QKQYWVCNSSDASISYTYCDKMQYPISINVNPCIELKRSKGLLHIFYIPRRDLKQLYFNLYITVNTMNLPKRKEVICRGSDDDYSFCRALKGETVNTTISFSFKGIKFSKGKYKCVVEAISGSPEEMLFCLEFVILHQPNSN

Kd (MD2-GFP [1]): 74 µM
Kd [2]: 34.8 µM
Kd (MD2-GFP [3]): 7.43 µM
Kd [4]: 6.5 µM
Substance: recombinant calcineurin B (from UniProt P63098 1-170) (natural protein; other documents disagree on this pair)
